Legend:
[1] = molecular target: Giardia lamblia virus strain GLV-HP capsid protein (Giardia lamblia virus (strain GLV-HP)); assay: cryo-EM structure; single-particle analysis of purified virions plunge-frozen on holey carbon grids; 300-kV Titan Krios; icosahedral symmetry imposed; atomic models of CP-A and CP-B built into the maps
[2] = molecular target: Giardia lamblia virus strain GLV-CAT capsid protein (Giardia lamblia virus (strain GLV-CAT)); assay: as above

Giardia lamblia virus strain GLV-HP capsid protein (natural protein)
stoichiometry N (CP dimers (CP-A and CP-B) in the capsid) [1]: 60

Giardia lamblia virus strain GLV-CAT capsid protein (natural protein)
stoichiometry N (CP dimers (CP-A and CP-B) in the capsid) [2]: 60
